B1: RanBP5 (residues 1-1115) co-expressed in the PA-PB1(1-686)-RanBP5 polyprotein (construct 21) (natural protein)
chain: MPEDQVGKLEATENTISAMAAAAAEQQQFYLLLGNLLSPDNVVRKQAEETYENIPGQSKITFLLQAIRNTTAAEEARQMAAVLLRRLLSSAFDEVYPALPSDVQTAIKSELLMIIQMETQSSMRKKVCDIAAELARNLIDEDGNNQWPEGLKFLFDSVSSQNVGLREAALHIFWNFPGIFGNQQQHYLDVIKRMLVQCMQDQEHPSIRTLSARATAAFILANEHNVALFKHFADLLPGFLQAVNDSCYQNDDSVLKSLVEIADTVPKYLRPHLEATLQLSLKLCGDTSLNNMQRQLALEVIVTLSETAAAMLRKHTNIVAQTIPQMLAMMVDLEEDEDWANADELEDDDFDSNAVAGESALDRMACGLGGKLVLPMIKEHIMQMLQNPDWKYRHAGLMALSAIGEGCHQQMEGILNEIVNFVLLFLQDPHPRVRYAACNAVGQMATDFAPGFQKKFHEKVIAALLQTMEDQGNQRVQAHAAAALINFTEDCPKSLLIPYLDNLVKHLHSIMVLKLQELIQKGTKLVLEQVVTSIASVADTAEEKFVPYYDLFMPSLKHIVENAVQKELRLLRGKTIECISLIGLAVGKEKFMQDASDVMQLLLKTQTDFNDMEDDDPQISYMISAWARMCKILGKEFQQYLPVVMGPLMKTASIKPEVALLDTQDMENMSDDDGWEFVNLGDQQSFGIKTAGLEEKSTACQMLVCYAKELKEGFVEYTEQVVKLMVPLLKFYFHDGVRVAAAESMPLLLECARVRGPEYLTQMWHFMCDALIKAIGTEPDSDVLSEIMHSFAKCIEVMGDGCLNNEHFEELGGILKAKLEEHFKNQELRQVKRQDEDYDEQVEESLQDEDDNDVYILTKVSDILHSIFSSYKEKVLPWFEQLLPLIVNLICPHRPWPDRQWGLCIFDDVIEHCSPASFKYAEYFLRPMLQYVCDNSPEVRQAAAYGLGVMAQYGGDNYRPFCTEALPLLVRVIQSADSKTKENVNATENCISAVGKIMKFKPDCVNVEEVLPHWLSWLPLHEDKEEAVQTFNYLCDLIESNHPIVLGPNNTNLPKIFSIIAEGEMHEAIKHEDPCAKRLANVVRQVQTSGGLWTECIAQLSPEQQAAIQELLNSA
B2: PA-PB1(1-686) heterodimer (construct 1) (complex)
chain 1: […]
chain 2: MDVNPTLLFLKVPAQNAISTTFPYTGDPPYSHGTGTGYTMDTVNRTHQYSEKGKWTTNTETGAAQLNPIDGPLPEDNEPSGYAQTDCVLEAMAFLEESHPGIFENSCLETMEVVQQTRVDRLTQGRQTYDWTLNRNQPAATALANTIEVFRSNGLIANESGRLIDFLKDVIESMDKEEMEITTHFQRKRRVRDNMTKKMVTQRTIGKKKQRVNKRSYLIRALTLNTMTKDAERGKLKRRAIATPGMQIRGFVYFVETLARSICEKLEQSGLPVGGNEKKAKLANVVRKMMTNSQDTELSFTITGDNTKWNENQNPRMFLAMITYITKNQPEWFRNILSIAPIMFSNKMARLGKGYMFESKRMKLRTQIPAEMLASIDLKYFNESTRKKIEKIRPLLIDGTASLSPGMMMGMFNMLSTVLGVSILNLGQKKYTKTTYWWDGLQSSDDFALIVNAPNHEGIQAGVDRFYRTCKLVGINMSKKKSYINRTGTFEFTSFFYRYGFVANFSMELPSFGVSGINESADMSIGVTVIKNNMINNDLGPATAQMALQLFIKDYRYTYRCHRGDTQIQTRRSFELKKLWEQTRSKAGLLVSDGGPNLYNIRNLHIPEVCLKWELMDEDYQGRLCNPLNPFVSHKEIESVNNAVVMPAHGPAKSMEYDAVATTHSWIPKRNRSILNTSQRGILEDE

Tests used:
[1] = biological target: B2; experiment: SEC-SAXS; conditions: both partners purified
[2] = biological target: B1; experiment: co-purification (nickel resin, heparin, SEC); conditions: partners not purified

| Binder | stoichiometry N [1] | binding result [2] |
| --- | --- | --- |
| B1 | 1 |  |
| B2 |  | binds |

Source: publication PMC4837377 (Scientific Reports, 2016)
